US9988424 (DUKE UNIVERSITY, dated 2018)

Assays:
Experiment in all cases: ELISA, OD405 at 10 ug/ml
gp70 C.1086 V1/V2 = target: T1, gp70 C.1086 V1/V2 (HIV-1 V1V2 on murine leukemia virus gp70)
T1 construct: also called C.gp70 1086C V1V2; C.1086gp70V1V2
T1 chain: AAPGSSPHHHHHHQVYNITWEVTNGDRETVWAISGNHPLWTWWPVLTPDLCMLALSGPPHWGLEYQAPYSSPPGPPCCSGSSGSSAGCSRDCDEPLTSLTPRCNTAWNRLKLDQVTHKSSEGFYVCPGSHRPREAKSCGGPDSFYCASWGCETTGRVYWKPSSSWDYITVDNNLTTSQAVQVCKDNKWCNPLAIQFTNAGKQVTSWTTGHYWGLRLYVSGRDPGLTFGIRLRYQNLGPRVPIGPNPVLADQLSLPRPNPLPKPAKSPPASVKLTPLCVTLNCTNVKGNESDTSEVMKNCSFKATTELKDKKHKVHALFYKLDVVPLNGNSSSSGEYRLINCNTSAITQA

C.CAP206 gp140CF.12 = C.CAP206 gp140CF.12 (HIV-1)
A.Q23 V1V2 tags = A.Q23 V1V2 tags (HIV-1)
C.1086 V1V2 Tags = C.1086 V1V2 Tags (HIV-1)
Con 6 gp120 = target: Con 6 gp120
G.con gp140CF = target: G.con gp140CF
AE.A244 V1V2 Tags = AE.A244 V1V2 Tags (HIV-1)
AE.con gp140CF = target: AE.con gp140CF
gp70 B.CaseA2 V1/V2 = target: T2, gp70 B.CaseA2 V1/V2 (HIV-1 V1V2 on murine leukemia virus gp70)
T2 construct: also called B.gp70CaseA2 V1/V2; gp70 B.CaseAV1V2
T2 chain: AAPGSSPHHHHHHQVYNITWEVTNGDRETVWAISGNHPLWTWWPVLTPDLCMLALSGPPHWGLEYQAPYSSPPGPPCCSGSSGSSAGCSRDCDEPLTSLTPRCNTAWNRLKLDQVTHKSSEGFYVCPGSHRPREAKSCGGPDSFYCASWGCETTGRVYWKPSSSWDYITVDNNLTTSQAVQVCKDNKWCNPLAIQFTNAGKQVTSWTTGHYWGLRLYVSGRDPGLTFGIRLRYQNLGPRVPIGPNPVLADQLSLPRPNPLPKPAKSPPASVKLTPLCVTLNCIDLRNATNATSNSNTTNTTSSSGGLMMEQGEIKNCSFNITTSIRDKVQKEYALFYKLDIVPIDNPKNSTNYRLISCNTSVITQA

B.Case A2 V1/V2 tags = target: B.Case A2 V1/V2 tags
C.1086 gp140 = target: T3, C.1086 gp140
T3 construct: also called C.1086gp140C

AE.A244 gp120 delta 11 = target: T4, AE.A244 gp120 delta 11 (HIV-1)
T4 construct: also called E.A244gp120Δ11; AE.A244 Δ11 gp120

D.9009SA V1/V2 tags = target: D.9009SA V1/V2 tags
SIV CPZ US-1 gp140CF = target: T5, SIV CPZ US-1 gp140CF (SIVcpz)
T5 construct: also called US-1 SIVCPZ gp140CF
T5 chain: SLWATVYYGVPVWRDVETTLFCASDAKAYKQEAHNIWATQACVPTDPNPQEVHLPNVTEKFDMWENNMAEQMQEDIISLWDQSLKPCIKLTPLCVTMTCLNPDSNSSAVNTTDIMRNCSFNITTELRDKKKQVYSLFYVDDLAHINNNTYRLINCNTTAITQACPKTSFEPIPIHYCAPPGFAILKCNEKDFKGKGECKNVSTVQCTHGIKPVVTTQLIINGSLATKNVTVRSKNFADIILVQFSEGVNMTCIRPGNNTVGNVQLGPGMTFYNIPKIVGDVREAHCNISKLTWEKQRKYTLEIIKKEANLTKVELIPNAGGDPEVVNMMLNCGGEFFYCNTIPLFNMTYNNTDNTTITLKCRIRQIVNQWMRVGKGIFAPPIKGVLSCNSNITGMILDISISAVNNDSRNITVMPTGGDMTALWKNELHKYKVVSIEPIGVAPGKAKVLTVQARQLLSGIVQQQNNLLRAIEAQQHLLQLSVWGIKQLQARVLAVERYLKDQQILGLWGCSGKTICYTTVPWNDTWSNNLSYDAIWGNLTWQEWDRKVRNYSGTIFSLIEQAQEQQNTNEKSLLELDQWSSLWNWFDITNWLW

AE.97CNG2XF gp140CF = target: T6, AE.97CNG2XF gp140CF (HIV-1)
T6 construct: also called E.97CNGX2F gp140CF

A.9004SS V1/V2 tags = target: T7, A.9004SS V1/V2 tags
T7 V1V2 tags construct: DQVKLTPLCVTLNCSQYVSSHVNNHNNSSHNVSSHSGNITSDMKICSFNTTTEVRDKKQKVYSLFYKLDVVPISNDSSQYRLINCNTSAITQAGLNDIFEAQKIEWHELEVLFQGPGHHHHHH

B.62357 gp140C = target: T8, B.62357 gp140C
T8 construct: also called B.62357 140C

B.9021 gp140C = B.9021 gp140C (HIV-1)
B.HXB/BAL gp140CFI = target: T9, B.HXB/BAL gp140CFI (HIV-1, UniProt P04578 33-680)
T9 construct: also called B.HxB/Ba gp140 CFI

Measured: binding result

B1: PG16 reverted unmutated ancestor antibody (antibody, V domains shown)
VH: QVQLVESGGGVVQPGRSLRLSCAASGFTFSSYGMHWVRQAPGKGLEWVAVISYDGSNKYYADSVKGRFTISRDNSKNTLYLQMNSLRAEDTAVYYCAREAGGPIWHDDVKYYDFNDGYYYYYYMDVWGKGTTVTVSS
VL: QSALTQPASVSGSPGQSITISCTGTSSDVGSYNLVSWYQQHPGKAPKLMIYEVSKRPSGVSNRFSGSKSGNTASLTISGLQAEDEADYYCCSLTDRSHRIFGGGTKLTVL
notes: also called PG16 RUA; PG16_RUA
no binding (tested: 10 ug/ml): all assays above
